Where “and” joins values, the source holds several entries; their conditions need not be identical. Equal values may be shown once.
Target: the molecule itself
Test: cryo-EM 2D classification

B1: α-latrotoxin (natural protein)
chain: EGEDLTLEEKAEICSELELQQKYVDIASNIIGDLSSLPIAGKIAGTIAAAAMTATHVASGRLDIEQTLLGCSDLPFDQIKEVLENRFNEIDRKLDSHSAALEEITKLVEKSISVVEKTRKQMNKRFDEVMKSIQDAKVSPIISKINNFARYFDTEKERIRGLKLNDYILKLEEPNGILLHFKESRTPTDDSLQAPLFSIIEEGYAVPKSIDDELAFKVLYALLYGTQTYVSVMFFLLEQYSFLANHYYEKGYLEKYDEYFNSLNNVFLDFKSSLVGTGTSNNEGLLDRVLQVLMTVKNSEFLGLEKNGVDEMLNEKINLFNKIKEEIEGKQKMTLSETPENFAQISFDKDITTPIGDWRDGREVRYAVQYASETLFSKISHWSDPVSVREKACPTLRMPVDQTRRNVLVFRKFDSSKPQLVGEITPYLSNFIDIDRDLYNAASNPDSAVGFKEFTKLNYDGANIRATFDHGRTVFHAAAKSGNDKIMFGLTFLAKSTELNQPDKKGYTPIHVAADSGNAGIVNLLIQRGVSINSKTYHFLQTPLHLAAQRGFVTTFQRLMESPEININERDKDGFTPLHYAIRGGERILEAFLNQISIDVNAKSNTGLTPFHLAIIKNDWPVASTLLGSKKVDINAVDENNITALHYAAILGYLETTKQLINLKEINANVVSSPGLLSALHYAILYKHDDVASFLMRSSNVNVNLKALGGITPLHLAVIQGRKQILSLMFDIGVNIEQKTDEKYTPLHLAAMSKYPELIQILLDQGSNFEAKTNSGATPLHLATFKGKSQAALILLNNEVNWRDTDENGQMPIHGAAMTGLLDVAQAIISIDATVVDIEDKNSDTPLNLAAQNSHIDVIKYFIDQGADINTRNKKGLAPLLAFSKKGNLDMVKYLFDKNANVYIADNDGMNFFYYAVQNGHLNIVKYAMSEKDKFEWSNTDNNRRDECPNEECAISHFAVCDAVQFDRIEIVKYFVGTLGNFAICGPLHQAARYGHLDIVKYLVEEEFLSVDGSKTDTPLCYASENGHFTVVQYLVSNGAKVNHDCGNGMTAIDKAITKNHLQVVQFLAANGVDFRRKNSRGTTPFLTAVAENALHIAEYLIREKRQDININEQNVDKDTALHLAVYYKNLQMIKLLIKYGIDVTIRNAYDKTALDIAIDAKFSNIVEYLKTKSGKFRR
stoichiometry N: 2 and 3 and 4
